± gives the standard deviation of the averaged measurements.
Tested on: ATP
Assay: switch fluorescence ratio, 500 uM ATP over buffer (Cy3 cluster intensity, sum of 5 cycles each) (fold (ratio)); higher = stronger signal-on switching upon ATP binding; sequences stand for … in TCGTCGGCAGCGTCAGATGTGTATAAGAGACAGTTTTTTTTTTTTTTTTTTTTTTTTT…TC
Settings: aptamer strand: ATP DNA aptamer (quencher-CACCTGGGGGAGTATTGCGGAGGAAGG + anchor), 100 nM annealed; ATP concentration: 500 uM
Method in brief: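 Exposure to 500 uM ATP lasted 15 min at 22 °C before imaging, and a selection-buffer image was taken beforehand, for Cy3-labelled switching-strand clusters on a modified Illumina MiSeq flow-cell annealed to 100 nM quencher-labelled ATP aptamer. Five buffer/ATP cycles were run with NaOH stripping and re-annealing between them. The fluorescence ratio per cluster is summed target-cycle over summed buffer-cycle Cy3 intensity, averaged per switch-domain sequence. Clusters outside 100-1000 RFU were excluded.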

Sequence	switch fluorescence ratio
TTGGGAGATT	0.971 ± 0.024
TTGGGAGCGT	1.01 ± 0.017
TTGGGAGCTG	1.021 ± 0.0068
TTGGGAGGGT	0.999 ± 0.029
TTGGGATTCG	1.01 ± 0.013
TTGGGATTTA	0.95 ± 0.015
TTGGGCAGAG	0.993 ± 0.043
TTGGGCGTCG	0.995 ± 0.047
TTGGGCTCTA	1.002 ± 0.0012
TTGGGCTGCT	0.9743 ± 0.00051
TTGGGGAAGT	0.994 ± 0.039
TTGGGGACGT	1.01 ± 0.042
TTGGGGAGAA	0.98 ± 0.035
TTGGGGCAGG	1.1 ± 0.07
TTGGGGCATG	0.971 ± 0.011
TTGGGGCTAG	1.02 ± 0.026
TTGGGGGAAT	0.992 ± 0.026
TTGGGGGACC	0.998 ± 0.025
TTGGGGGCAG	1.01 ± 0.018
TTGGGGGGGG	1.01 ± 0.056
TTGGGGGGT	1.06 ± 0.012
TTGGGGGTCA	1.01 ± 0.023
TTGGGGGTCG	1.02 ± 0.034
TTGGGGGTGT	1.03 ± 0.1
TTGGGGTACG	1.01 ± 0.021

Sequence	switch fluorescence ratio
TTGGGGTCAG	1 ± 0.038
TTGGGGTCCA	0.977 ± 0.015
TTGGGGTCGT	0.974 ± 0.03
TTGGGGTGGA	0.99 ± 0.018
TTGGGGTTGG	1.01 ± 0.03
TTGGGTAGAT	0.988 ± 0.025
TTGGGTAGGG	1.01 ± 0.051
TTGGGTCATG	1.036 ± 0.0048
TTGGGTGTTA	0.9907 ± 0.0021
TTGGGTTAGT	1.01 ± 0.019
TTGGGTTCAA	1.4 ± 0.52
TTGGTACATT	0.99163 ± 8.4e-05
TTGGTAGGAG	0.985 ± 0.042
TTGGTAGTCT	1.04 ± 0.012
TTGGTAGTGG	0.977 ± 0.028
TTGGTAGTTG	0.954 ± 0.011
TTGGTATTGA	0.99 ± 0.098
TTGGTCGGG	0.98 ± 0.044
TTGGTCTTAC	1.06 ± 0.096
TTGGTCTTGA	0.994 ± 0.018
TTGGTGACGG	0.986 ± 0.013
TTGGTGAGGG	0.978 ± 0.022
TTGGTGGAAG	1.02 ± 0.0057
TTGGTGGACA	0.976 ± 0.026
TTGGTGTAGC	0.972 ± 0.026

Sequence	switch fluorescence ratio
TTGGTGTGAC	1.05 ± 0.065
TTGGTGTTCA	0.996 ± 0.013
TTGGTTAAAT	1.01 ± 0.026
TTGGTTAATG	1.01 ± 0.019
TTGGTTCCAT	1.02 ± 0.017
TTGGTTCGAC	0.962 ± 0.04
TTGGTTCGTT	0.994 ± 0.025
TTGGTTGACG	0.963 ± 0.041
TTGGTTGCG	1.02 ± 0.026
TTGGTTGTCG	1.02 ± 0.019
TTGGTTTACT	1.22 ± 0.3
TTGGTTTCCC	1.01 ± 0.02
TTGGTTTTGC	0.99 ± 0.019
TTGGTTTTT	0.993 ± 0.019
TTGTAAGGGT	0.978 ± 0.017
TTGTAATTAC	1.3 ± 0.44
TTGTAATTCG	1.02 ± 0.05
TTGTAATTTT	0.991 ± 0.017
TTGTACGGGG	0.985 ± 0.03
TTGTACTATC	1.01 ± 0.063
TTGTAGCTGT	1.12 ± 0.13
TTGTAGGGAT	1.43 ± 0.77
TTGTAGGGGG	1.17 ± 0.4
TTGTAGTTAT	1.09 ± 0.16
TTGTATATAT	1.49 ± 0.81

Sequence	switch fluorescence ratio
TTGTATGGGA	1.001 ± 0.0069
TTGTATGTGT	0.983 ± 0.032
TTGTATTGCC	1.02 ± 0.018
TTGTATTTGC	0.976 ± 0.031
TTGTCAGAGT	1.001 ± 0.0015
TTGTCATCTG	1.01 ± 0.012
TTGTCCCGTG	1.01 ± 0.026
TTGTCGCTGT	1.14 ± 0.19
TTGTCGGGTT	1.01 ± 0.018
TTGTCGTCTC	0.986 ± 0.041
TTGTCTGGGC	0.984 ± 0.032
TTGTGAAGCA	1.025 ± 0.0054
TTGTGAAGGT	1.05 ± 0.044
TTGTGAGTGC	0.91 ± 0.023
TTGTGATAGA	1.06 ± 0.052
TTGTGATCTT	0.961 ± 0.02
TTGTGATGGA	0.9896 ± 0.008
TTGTGATTCT	0.97032 ± 0.00028
TTGTGATTGT	1.01 ± 0.016
TTGTGCAAGT	1.01 ± 0.013
TTGTGCGACT	0.98 ± 0.019
TTGTGCTATT	1.26 ± 0.32
TTGTGGAATT	0.966 ± 0.02
TTGTGGATG	0.962 ± 0.017
TTGTGGGG	0.992 ± 0.021

Sequence	switch fluorescence ratio
TTGTGGGGCG	0.986 ± 0.068
TTGTGGGTCC	1.013 ± 0.0093
TTGTGGGTGT	1.004 ± 0.0082
TTGTGGTATT	0.99 ± 0.0084
TTGTGGTCGT	0.9859 ± 0.0074
TTGTGGTGTG	0.984 ± 0.049
TTGTGTCAGT	0.9885 ± 0.0045
TTGTGTGACT	0.991 ± 0.04
TTGTGTGCAG	0.959 ± 0.053
TTGTGTGTGG	0.976 ± 0.021
TTGTGTGTGT	0.993 ± 0.019
TTGTGTTAGG	0.994 ± 0.031
TTGTGTTGGC	1.02 ± 0.038
TTGTGTTTCG	0.967 ± 0.028
TTGTGTTTTA	0.998 ± 0.02
TTGTTAAATC	1.02 ± 0.038
TTGTTAAGAG	0.986 ± 0.043
TTGTTAAGTG	1.02 ± 0.1
TTGTTACATC	0.941 ± 0.016
TTGTTACATG	1.012 ± 0.0051
TTGTTACTTT	1 ± 0.017
TTGTTAGAGT	0.9809 ± 0.0019
TTGTTAGTTG	1.01 ± 0.045
TTGTTATAGA	0.998 ± 0.024
TTGTTCCGTT	0.9874 ± 0.0066

Sequence	switch fluorescence ratio
TTGTTCTGGA	0.977 ± 0.056
TTGTTGAGTC	1 ± 0.032
TTGTTGAGTG	0.968 ± 0.028
TTGTTGCGGA	0.997 ± 0.011
TTGTTGCGGC	1.01 ± 0.042
TTGTTGTCTA	0.995 ± 0.015
TTGTTGTTGT	0.988 ± 0.021
TTGTTTAGGC	1.1 ± 0.027
TTGTTTGAGG	0.9815 ± 0.004
TTGTTTGGGA	1.02 ± 0.034
TTGTTTGGTA	1 ± 0.013
TTGTTTGTAT	0.9647 ± 0.0073
TTGTTTGTT	0.994 ± 0.019
TTGTTTTCAC	1.28 ± 0.4
TTGTTTTCGT	1.01 ± 0.039
TTGTTTTGTC	0.975 ± 0.065
TTGTTTTTCA	0.999 ± 0.027
TTTAAAAACC	1.01 ± 0.034
TTTAAAATTG	0.989 ± 0.042
TTTAAACAA	1 ± 0.032
TTTAAACGCT	0.997 ± 0.036
TTTAAACGGG	1 ± 0.011
TTTAAAGCTG	1.06 ± 0.064
TTTAAATATT	1.02 ± 0.031
TTTAAATGGG	1 ± 0.021

Sequence	switch fluorescence ratio
TTTAACACCA	1.029 ± 0.0075
TTTAACAGGG	1.03 ± 0.069
TTTAACTAGT	1 ± 0.018
TTTAAGACC	0.979 ± 0.015
TTTAAGATGG	1.02 ± 0.02
TTTAAGATTA	0.9843 ± 0.0063
TTTAAGCATT	1.19 ± 0.066
TTTAAGCGCT	0.979 ± 0.029
TTTAAGCGGT	0.996 ± 0.024
TTTAAGGAAC	1.03 ± 0.026
TTTAAGGAGA	0.993 ± 0.037
TTTAAGGCAG	1.005 ± 0.0023
TTTAAGGGTG	1.07 ± 0.037
TTTAATAATG	0.988 ± 0.036
TTTAATAGCA	1.01 ± 0.025
TTTAATCATC	1.01 ± 0.026
TTTAATGCTG	1.01 ± 0.021
TTTAATGGGT	1 ± 0.022
TTTAATTGCG	0.993 ± 0.012
TTTACAGATA	1 ± 0.018
TTTACCGGAT	1.05 ± 0.024
TTTACCGGTT	0.974 ± 0.07
TTTACGACAC	2.02 ± 0.14
TTTACGCGGT	1.03 ± 0.015
TTTACGGATA	1.349 ± 0.013

Sequence	switch fluorescence ratio
TTTACGGATG	1.044 ± 0.0036
TTTACGGATT	1.02 ± 0.048
TTTACGGGGA	1 ± 0.022
TTTACGGTTC	1.03 ± 0.054
TTTACTAAGG	1.03 ± 0.02
TTTACTAATA	1.02 ± 0.014
TTTACTAGTT	1.03 ± 0.037
TTTACTCGCG	1 ± 0.038
TTTACTGGGC	1.03 ± 0.022
TTTACTGTTT	1.01 ± 0.082
TTTACTTCTC	1.02 ± 0.032
TTTAGAAAGG	1 ± 0.025
TTTAGAAGTG	1.005 ± 0.0094
TTTAGAATAT	0.9885 ± 0.0018
TTTAGAATCC	1.03 ± 0.019
TTTAGACA	1.02 ± 0.053
TTTAGACGAC	1.04 ± 0.051
TTTAGACTAG	0.987 ± 0.017
TTTAGAGATT	1.01 ± 0.068
TTTAGAGTAT	0.992 ± 0.018
TTTAGAGTTT	0.997 ± 0.032
TTTAGATAAC	1.02 ± 0.044
TTTAGATAGG	0.98 ± 0.026
TTTAGATTTA	1.04 ± 0.042
TTTAGATTTT	0.998 ± 0.026

— the supplement of paper PMC10126150
